In article PMC11971343, “Role of charges in a dynamic disordered complex between an IDP and a folded domain” (Nature Communications, 2025):

B1: prothymosin α (ProTα), isoform 2 (natural protein, UniProt P06454-2 1-110, looked up)
chain: MSDAAVDTSSEITTKDLKEKKEVVEEAENGRDAPANGNANEENGEQEADNEVDEEEEEGGEEEEEEEEGDGEEEDGDEDEEAESATGKRAAEDDEDDDVDTKKQKTDEDD
notes: prothymosin α, isoform 2, used for NMR (unlabelled, 15N- or 13C,15N-labelled); BMRB 27215 holds its assignments; Isotope-labelled and unlabelled forms are treated as one molecule; also called 15N-ProTα; source: produced as previously described [16,34,52,78]

Tests used:
Details in all cases: both partners purified
[1] = biological target: T1, wild-type human histone H1.0, full length (produced recombinantly, for NMR) (human, UniProt P07305 1-194); assay: NMR titration; 1H-15N HSQC of 15N-ProTα (28 μM) with GD up to 8x molar ratio, or 8x RST or CaM; 15N-ProTα (37 μM) with 2x full-length H1; 283 K, TBSK buffer (10 mM Tris, 155 mM KCl, 0.1 mM EDTA), pH 7.4
T1 construct: human linker histone H1.0, wild type, full length; also called full-length H1; linker histone H1.0; source: produced recombinantly [16]
T1 sequence (P07305 whole entry): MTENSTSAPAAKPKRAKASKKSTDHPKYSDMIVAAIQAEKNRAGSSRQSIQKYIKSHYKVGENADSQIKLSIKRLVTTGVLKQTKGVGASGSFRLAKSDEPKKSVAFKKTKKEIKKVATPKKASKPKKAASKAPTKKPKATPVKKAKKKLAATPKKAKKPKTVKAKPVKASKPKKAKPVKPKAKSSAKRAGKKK

[2] = biological target: B1; assay: as above
[3] = biological target: B1; assay: NMR titration; 1H-15N HSQC of 15N-ProTα (50 μM) with 4x molar ratio of GD-WT or a GD variant; sum of CSPs normalised to that with GD-WT at the same ratio and batch; 283 K, TBSK buffer, pH 7.4

Relative CSPsum [3]	Binder	further results
	B1	binding result [1]: binds
	RST domain of the plant protein RCD1 (domain or fragment, folded RST domain of the plant protein RCD1, net charge +5; also called RCD1-RST; source: produced as previously described [16,34,52,78]) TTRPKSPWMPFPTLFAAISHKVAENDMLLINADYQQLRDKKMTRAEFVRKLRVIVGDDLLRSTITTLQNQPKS	binding result [2]: binds
0.11	H1-GD variant 6K1 (domain or fragment, human, net charge +5; source: produced as previously described [16,34,52,78]) DHPKYSDMIVAAIQAEKNRAGSSRQSIQQYIKSHYKVGENADSQIKLSIQRLVTTGVLQQTQGVGASGSFRLAK	
0.13	H1-GD variant 6K2 (domain or fragment, human, net charge +5; source: produced as previously described [16,34,52,78]) DHPKYSDMIVAAIQAEQNRAGSSRQSIQKYIKSHYKVGENADSQIKLSIQRLVTTGVLKQTQGVGASGSFRLAQ	
